From the supplement of paper PMC10065799, “High-throughput profiling of sequence recognition by tyrosine kinases and SH2 domains using bacterial peptide display” (eLife, 2023)
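Note: 11-residue human phosphosite peptides and single-mutation variants displayed on the E. coli surface, counted by deep sequencing, each peptide's frequency after selection divided by its frequency in the unselected input library; frequency after pTyr selection over input frequency; kinase dosed for 20-30% of maximal phosphorylation in three min.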

The sequences below were run against FGFR1 (UniProt P11362) (assay: phosphorylation enrichment, bacterial display (enrichment ratio); higher = better substrate or ligand; peptides without Tyr show the background).
FGFR1, sequence (P11362 whole entry, looked up): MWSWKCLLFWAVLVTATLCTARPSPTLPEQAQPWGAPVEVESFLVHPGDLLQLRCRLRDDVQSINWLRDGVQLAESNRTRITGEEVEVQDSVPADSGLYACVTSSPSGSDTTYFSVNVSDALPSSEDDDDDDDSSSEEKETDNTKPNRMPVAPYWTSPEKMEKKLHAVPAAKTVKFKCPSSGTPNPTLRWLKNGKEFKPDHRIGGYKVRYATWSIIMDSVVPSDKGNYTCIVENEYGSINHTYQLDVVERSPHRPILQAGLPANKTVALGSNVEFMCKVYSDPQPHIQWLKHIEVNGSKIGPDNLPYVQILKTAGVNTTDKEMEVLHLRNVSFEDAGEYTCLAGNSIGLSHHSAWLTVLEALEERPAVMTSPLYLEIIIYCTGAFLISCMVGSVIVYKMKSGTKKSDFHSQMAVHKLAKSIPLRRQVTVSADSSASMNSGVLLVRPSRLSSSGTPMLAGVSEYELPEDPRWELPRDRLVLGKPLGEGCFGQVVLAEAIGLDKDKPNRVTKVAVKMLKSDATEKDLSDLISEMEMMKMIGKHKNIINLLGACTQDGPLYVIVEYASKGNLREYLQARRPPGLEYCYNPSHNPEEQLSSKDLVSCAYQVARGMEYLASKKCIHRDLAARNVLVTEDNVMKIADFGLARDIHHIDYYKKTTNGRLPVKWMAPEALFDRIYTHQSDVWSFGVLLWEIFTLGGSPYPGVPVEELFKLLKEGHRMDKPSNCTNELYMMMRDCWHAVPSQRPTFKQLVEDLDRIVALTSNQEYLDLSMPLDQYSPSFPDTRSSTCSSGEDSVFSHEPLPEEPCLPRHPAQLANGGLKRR
In the case of DRLASDLDKVR [KRT10_Y160_Y160D], the phosphorylation enrichment is reported as 0.439. MDDKEYYSVHN [MET_Y1234_Y1230D] gave a phosphorylation enrichment of 2.06. With ATHSRYRLNDF [CLDN14_Y233_G232R_YF] the phosphorylation enrichment was 0.307. Sequence VEQIHYIGQNE [HMOX2_Y140_R137Q] has a phosphorylation enrichment of 0.483. LVMFIYDIFGM [SCN1A_Y1684_A1685D] showed a phosphorylation enrichment of 1.66. FSCLPYRRLAF [SLC52A2_Y305_G306R_YF] gave a phosphorylation enrichment of 0.478. In the case of ESMLRYDVFGG [STOX1_Y607_E608D_YF], the phosphorylation enrichment is reported as 0.508. HNELYYEAAEH [VANGL1_Y345_E347A] gave a phosphorylation enrichment of 5.49. For SQPASYQRRFL [PPIG_Y320_L324F], the phosphorylation enrichment was 0.472. VKPENYRRLDV [VHL_Y175_I180V] was tested, and the phosphorylation enrichment was 0.429. Work on KLKRSYSSPDI [USP8_Y717] yielded a phosphorylation enrichment of 0.365. With GTQGSYLLSRK [UGT3A1_Y123_C121G] the phosphorylation enrichment was 0.366. Work on KMKGDYFRFLA [YWHAG_Y130_YF] yielded a phosphorylation enrichment of 5.05. Work on SNNFIYKTLGV [FAM83B_Y639_YF] yielded a phosphorylation enrichment of 0.484. SVTGTYSPALN [TP53_Y126_C124G] showed a phosphorylation enrichment of 0.394. With FSPGSYERETF [NF1_Y2192] the phosphorylation enrichment was 0.483. Sequence TQRPYYKGGGG [TYROBP_Y112] has a phosphorylation enrichment of 0.558. SGETKYNPTEA [NBEAL2_Y2748_E2747K] was tested, and the phosphorylation enrichment was 0.502. Sequence YGCGMYSHLQG [LGR4_Y848_D844G] has a phosphorylation enrichment of 1.06. With RRQDLYSARDL [SART1_Y249] the phosphorylation enrichment was 0.586. Work on ILGRYYETGSI [PAX2_Y73] yielded a phosphorylation enrichment of 0.848. With KSRQIYDAYIM [GRK3_Y109_R104K] the phosphorylation enrichment was 0.505. KVALLYKPFFF [POLE_Y100_P99L_YF] was tested, and the phosphorylation enrichment was 0.496. In the case of PIAPVYAASMV [ACAT1_Y331], the phosphorylation enrichment is reported as 0.744. With IVEFAYNDKAV [PUM3_Y259_I264V_YF] the phosphorylation enrichment was 0.59. With PQQLWYTHEKK [UBTF_Y207] the phosphorylation enrichment was 0.516. With PVRIAYGRPRG [SUGP2_Y985_D986G] the phosphorylation enrichment was 0.449. Sequence QGCGIYKDFFR [PLA2G2D_Y82_S80G_YF] has a phosphorylation enrichment of 0.7. GSIQQYIFKQE [PRG4_Y1271_YF] gave a phosphorylation enrichment of 0.531. Work on LKVDVYGRSHK [FUT3_Y222] yielded a phosphorylation enrichment of 0.782. EHFSYYGMKAV [SLC15A2_Y61_R57H] showed a phosphorylation enrichment of 8.11. For PELIDYGKLRK [ACTN1_Y193], the phosphorylation enrichment was 0.714. In the case of PRAEWYRDDVL [MYOM2_Y317], the phosphorylation enrichment is reported as 0.507.

The sequences below were run on c-Abl (mouse) in the same assay as above.
With DRLASDLDKVR [KRT10_Y160_Y160D] the phosphorylation enrichment was 0.443. MDDKEYYSVHN [MET_Y1234_Y1230D] showed a phosphorylation enrichment of 0.747. ATHSRYRLNDF [CLDN14_Y233_G232R_YF] was tested, and the phosphorylation enrichment was 0.546. In the case of VEQIHYIGQNE [HMOX2_Y140_R137Q], the phosphorylation enrichment is reported as 0.423. LVMFIYDIFGM [SCN1A_Y1684_A1685D] showed a phosphorylation enrichment of 1.55. In the case of FSCLPYRRLAF [SLC52A2_Y305_G306R_YF], the phosphorylation enrichment is reported as 0.63. ESMLRYDVFGG [STOX1_Y607_E608D_YF] showed a phosphorylation enrichment of 0.582. HNELYYEAAEH [VANGL1_Y345_E347A] was tested, and the phosphorylation enrichment was 0.854. Work on SQPASYQRRFL [PPIG_Y320_L324F] yielded a phosphorylation enrichment of 0.599. With VKPENYRRLDV [VHL_Y175_I180V] the phosphorylation enrichment was 0.814. KLKRSYSSPDI [USP8_Y717] gave a phosphorylation enrichment of 0.412. GTQGSYLLSRK [UGT3A1_Y123_C121G] showed a phosphorylation enrichment of 0.606. With KMKGDYFRFLA [YWHAG_Y130_YF] the phosphorylation enrichment was 0.806. SNNFIYKTLGV [FAM83B_Y639_YF] was tested, and the phosphorylation enrichment was 0.631. With SVTGTYSPALN [TP53_Y126_C124G] the phosphorylation enrichment was 0.717. Work on FSPGSYERETF [NF1_Y2192] yielded a phosphorylation enrichment of 0.702. For TQRPYYKGGGG [TYROBP_Y112], the phosphorylation enrichment was 0.573. SGETKYNPTEA [NBEAL2_Y2748_E2747K] gave a phosphorylation enrichment of 0.624. Sequence YGCGMYSHLQG [LGR4_Y848_D844G] has a phosphorylation enrichment of 1.49. RRQDLYSARDL [SART1_Y249] gave a phosphorylation enrichment of 0.525. For ILGRYYETGSI [PAX2_Y73], the phosphorylation enrichment was 0.535. Work on KSRQIYDAYIM [GRK3_Y109_R104K] yielded a phosphorylation enrichment of 5.89. Work on KVALLYKPFFF [POLE_Y100_P99L_YF] yielded a phosphorylation enrichment of 0.921. In the case of PIAPVYAASMV [ACAT1_Y331], the phosphorylation enrichment is reported as 48.5. In the case of IVEFAYNDKAV [PUM3_Y259_I264V_YF], the phosphorylation enrichment is reported as 0.705. In the case of PQQLWYTHEKK [UBTF_Y207], the phosphorylation enrichment is reported as 0.499. Sequence PVRIAYGRPRG [SUGP2_Y985_D986G] has a phosphorylation enrichment of 0.5. In the case of QGCGIYKDFFR [PLA2G2D_Y82_S80G_YF], the phosphorylation enrichment is reported as 1.26. GSIQQYIFKQE [PRG4_Y1271_YF] gave a phosphorylation enrichment of 0.499. In the case of LKVDVYGRSHK [FUT3_Y222], the phosphorylation enrichment is reported as 0.629. Sequence EHFSYYGMKAV [SLC15A2_Y61_R57H] has a phosphorylation enrichment of 0.634. PELIDYGKLRK [ACTN1_Y193] gave a phosphorylation enrichment of 0.537. Sequence PRAEWYRDDVL [MYOM2_Y317] has a phosphorylation enrichment of 0.879.

Each sequence was assayed on Fer (mouse) in the same assay as above.
Work on DRLASDLDKVR [KRT10_Y160_Y160D] yielded a phosphorylation enrichment of 0.416. Work on MDDKEYYSVHN [MET_Y1234_Y1230D] yielded a phosphorylation enrichment of 0.54. ATHSRYRLNDF [CLDN14_Y233_G232R_YF] showed a phosphorylation enrichment of 0.349. VEQIHYIGQNE [HMOX2_Y140_R137Q] showed a phosphorylation enrichment of 0.424. In the case of LVMFIYDIFGM [SCN1A_Y1684_A1685D], the phosphorylation enrichment is reported as 3.13. With FSCLPYRRLAF [SLC52A2_Y305_G306R_YF] the phosphorylation enrichment was 0.411. Work on ESMLRYDVFGG [STOX1_Y607_E608D_YF] yielded a phosphorylation enrichment of 0.536. Sequence HNELYYEAAEH [VANGL1_Y345_E347A] has a phosphorylation enrichment of 7.27. For SQPASYQRRFL [PPIG_Y320_L324F], the phosphorylation enrichment was 0.364. With VKPENYRRLDV [VHL_Y175_I180V] the phosphorylation enrichment was 0.334. For KLKRSYSSPDI [USP8_Y717], the phosphorylation enrichment was 0.38. GTQGSYLLSRK [UGT3A1_Y123_C121G] was tested, and the phosphorylation enrichment was 0.392. For KMKGDYFRFLA [YWHAG_Y130_YF], the phosphorylation enrichment was 0.282. SNNFIYKTLGV [FAM83B_Y639_YF] showed a phosphorylation enrichment of 0.421. SVTGTYSPALN [TP53_Y126_C124G] gave a phosphorylation enrichment of 0.434. Sequence FSPGSYERETF [NF1_Y2192] has a phosphorylation enrichment of 0.427. TQRPYYKGGGG [TYROBP_Y112] showed a phosphorylation enrichment of 0.419. Sequence SGETKYNPTEA [NBEAL2_Y2748_E2747K] has a phosphorylation enrichment of 0.539. In the case of YGCGMYSHLQG [LGR4_Y848_D844G], the phosphorylation enrichment is reported as 1.24. Sequence RRQDLYSARDL [SART1_Y249] has a phosphorylation enrichment of 0.401. With ILGRYYETGSI [PAX2_Y73] the phosphorylation enrichment was 0.459. Sequence KSRQIYDAYIM [GRK3_Y109_R104K] has a phosphorylation enrichment of 12.4. For KVALLYKPFFF [POLE_Y100_P99L_YF], the phosphorylation enrichment was 1.39. Sequence PIAPVYAASMV [ACAT1_Y331] has a phosphorylation enrichment of 8.12. With IVEFAYNDKAV [PUM3_Y259_I264V_YF] the phosphorylation enrichment was 0.462. In the case of PQQLWYTHEKK [UBTF_Y207], the phosphorylation enrichment is reported as 0.339. Sequence PVRIAYGRPRG [SUGP2_Y985_D986G] has a phosphorylation enrichment of 0.61. QGCGIYKDFFR [PLA2G2D_Y82_S80G_YF] was tested, and the phosphorylation enrichment was 0.76. GSIQQYIFKQE [PRG4_Y1271_YF] gave a phosphorylation enrichment of 0.451. For LKVDVYGRSHK [FUT3_Y222], the phosphorylation enrichment was 0.441. In the case of EHFSYYGMKAV [SLC15A2_Y61_R57H], the phosphorylation enrichment is reported as 0.607. PELIDYGKLRK [ACTN1_Y193] was tested, and the phosphorylation enrichment was 0.465. With PRAEWYRDDVL [MYOM2_Y317] the phosphorylation enrichment was 0.767.

These sequences were tested against EPHB1 (UniProt P54762) in the same assay as above.
EPHB1, sequence (P54762 whole entry, looked up): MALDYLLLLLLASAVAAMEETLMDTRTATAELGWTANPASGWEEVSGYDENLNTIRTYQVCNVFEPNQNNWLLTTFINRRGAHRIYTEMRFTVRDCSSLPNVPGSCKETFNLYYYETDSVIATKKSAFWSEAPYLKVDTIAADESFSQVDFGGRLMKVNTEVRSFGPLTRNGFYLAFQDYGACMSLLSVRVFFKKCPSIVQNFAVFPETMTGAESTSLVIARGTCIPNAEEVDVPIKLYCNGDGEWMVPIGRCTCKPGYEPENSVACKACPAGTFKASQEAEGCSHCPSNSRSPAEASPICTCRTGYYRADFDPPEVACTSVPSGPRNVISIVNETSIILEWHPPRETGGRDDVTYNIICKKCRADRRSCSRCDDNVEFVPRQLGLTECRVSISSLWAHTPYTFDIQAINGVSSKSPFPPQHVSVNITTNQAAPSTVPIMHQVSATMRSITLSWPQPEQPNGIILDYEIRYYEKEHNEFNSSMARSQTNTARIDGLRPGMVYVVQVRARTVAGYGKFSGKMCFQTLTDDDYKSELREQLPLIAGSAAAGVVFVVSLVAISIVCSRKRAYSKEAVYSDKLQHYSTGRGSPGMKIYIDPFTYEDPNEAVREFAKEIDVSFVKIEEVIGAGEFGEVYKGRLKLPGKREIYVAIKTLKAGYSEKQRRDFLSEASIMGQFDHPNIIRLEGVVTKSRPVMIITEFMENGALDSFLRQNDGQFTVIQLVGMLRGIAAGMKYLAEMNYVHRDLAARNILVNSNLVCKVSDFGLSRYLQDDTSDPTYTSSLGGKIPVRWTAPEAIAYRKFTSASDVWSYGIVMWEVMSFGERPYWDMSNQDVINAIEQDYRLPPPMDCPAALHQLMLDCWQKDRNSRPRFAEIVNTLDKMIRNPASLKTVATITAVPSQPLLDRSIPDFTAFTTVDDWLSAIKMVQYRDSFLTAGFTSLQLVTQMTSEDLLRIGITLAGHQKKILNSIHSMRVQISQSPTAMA
DRLASDLDKVR [KRT10_Y160_Y160D] showed a phosphorylation enrichment of 0.372. Work on MDDKEYYSVHN [MET_Y1234_Y1230D] yielded a phosphorylation enrichment of 0.613. In the case of ATHSRYRLNDF [CLDN14_Y233_G232R_YF], the phosphorylation enrichment is reported as 0.296. Work on VEQIHYIGQNE [HMOX2_Y140_R137Q] yielded a phosphorylation enrichment of 0.445. LVMFIYDIFGM [SCN1A_Y1684_A1685D] gave a phosphorylation enrichment of 2.11. With FSCLPYRRLAF [SLC52A2_Y305_G306R_YF] the phosphorylation enrichment was 0.428. Sequence ESMLRYDVFGG [STOX1_Y607_E608D_YF] has a phosphorylation enrichment of 0.445. Work on HNELYYEAAEH [VANGL1_Y345_E347A] yielded a phosphorylation enrichment of 1.12. SQPASYQRRFL [PPIG_Y320_L324F] gave a phosphorylation enrichment of 0.38. VKPENYRRLDV [VHL_Y175_I180V] showed a phosphorylation enrichment of 0.561. KLKRSYSSPDI [USP8_Y717] was tested, and the phosphorylation enrichment was 0.376. With GTQGSYLLSRK [UGT3A1_Y123_C121G] the phosphorylation enrichment was 0.48. KMKGDYFRFLA [YWHAG_Y130_YF] gave a phosphorylation enrichment of 0.804. SNNFIYKTLGV [FAM83B_Y639_YF] was tested, and the phosphorylation enrichment was 0.45. Sequence SVTGTYSPALN [TP53_Y126_C124G] has a phosphorylation enrichment of 0.419. FSPGSYERETF [NF1_Y2192] gave a phosphorylation enrichment of 0.526. In the case of TQRPYYKGGGG [TYROBP_Y112], the phosphorylation enrichment is reported as 0.39. SGETKYNPTEA [NBEAL2_Y2748_E2747K] showed a phosphorylation enrichment of 0.558. YGCGMYSHLQG [LGR4_Y848_D844G] was tested, and the phosphorylation enrichment was 1.06. RRQDLYSARDL [SART1_Y249] was tested, and the phosphorylation enrichment was 0.576. Work on ILGRYYETGSI [PAX2_Y73] yielded a phosphorylation enrichment of 0.546. KSRQIYDAYIM [GRK3_Y109_R104K] gave a phosphorylation enrichment of 2.98. Work on KVALLYKPFFF [POLE_Y100_P99L_YF] yielded a phosphorylation enrichment of 0.516. In the case of PIAPVYAASMV [ACAT1_Y331], the phosphorylation enrichment is reported as 2.45. IVEFAYNDKAV [PUM3_Y259_I264V_YF] gave a phosphorylation enrichment of 0.561. Sequence PQQLWYTHEKK [UBTF_Y207] has a phosphorylation enrichment of 0.58. PVRIAYGRPRG [SUGP2_Y985_D986G] showed a phosphorylation enrichment of 0.643. QGCGIYKDFFR [PLA2G2D_Y82_S80G_YF] showed a phosphorylation enrichment of 0.548. In the case of GSIQQYIFKQE [PRG4_Y1271_YF], the phosphorylation enrichment is reported as 0.476. With LKVDVYGRSHK [FUT3_Y222] the phosphorylation enrichment was 0.553. Work on EHFSYYGMKAV [SLC15A2_Y61_R57H] yielded a phosphorylation enrichment of 0.887. Sequence PELIDYGKLRK [ACTN1_Y193] has a phosphorylation enrichment of 0.441. In the case of PRAEWYRDDVL [MYOM2_Y317], the phosphorylation enrichment is reported as 0.959.
